Laboratory results from patent US20070031511A1, “Method of treatment” (priority 2003, published 2007).

Test: Quenching of peptide tryptophan fluorescence by ferric ions (stoichiometry, apparent Kd)
Assay type: binding
Conditions: 10 mM sodium acetate pH 4.0, 100 mM NaCl, 0.005% Tween 20; mean ± S.E.; read-out: Kd (μM), apparent dissociation constant for ferric ions
Protocol: The tryptophan fluorescence of peptide solutions was measured in 3 mL quartz cuvettes thermostated at […], with a Spex Fluorolog-2 spectrofluorimeter (Spex Industries, Edison, N.J.), with the excitation and emission wavelengths set at 290 and 345 nm, respectively. The quenching of tryptophan fluorescence induced by the binding of metal ions was used to calculate the fraction of binding sites occupied, fa: fa=(yf−y)/(yf−yb) where y is the fluorescence signal at a given concentration of metal ions and yb and yf are the signals when the binding sites are fully occupied and unoccupied, respectively (Winzor et al, 1995). […]
The tryptophan fluorescence of progastrin6-80, glycine-extended gastrin17 and related peptides was measured in the presence of increasing concentrations of ferric ions in 10 mM sodium acetate, pH 4.0, 100 mM NaCl, 0.005% Tween 20. […]
The tryptophan fluorescence of amidated gastrin17 and related peptides was measured in the presence of increasing concentrations of ferric ions at pH 4.0 (8). […]

Kd: 2.15 ± 0.14 µM
B1: Progastrin: recombinant human progastrin6-80 (protein, listed as Homo sapiens)
chain: SQQPDAPLGTGANRDLELPWLEQQGPASHHRRQLGPQGPPHLVADPSKKQGPWLEEEEEAYGWMDFGRRSAEDEN
